In patent publication US11499162B2, “Plants having increased tolerance to herbicides” (BASF SE, priority 2016, dated 2022):
Substitutions are numbered along the chain they refer to. Numbers in names are those of the source.

Format: biochemical
Conditions: pH 7.2
Procedure: EXAMPLE 3: Protein Purification. TriA and variants thereof were produced in E. coli BL21(DE3) Gold (Agilent Technologies, Germany). Therefore E. coli was transformed with appropriate pET24d N-HIS tag expression vector and chaperone plasmid pGro7 (chaperones groEL and groES). Bacterial strains were grown at 30° C. in 100 mL LB for 20 h and protein expression induced with 0.1 mM IPTG at 25° C. for 20 hs. Cells were harvested by centrifugation at 3000 rpm at 4° C. for 20 min, resuspended in Bug Buster protein extraction reagent (Novagen, Germany) according to manufactures instructions. Lysates were clarified by centrifugation. Samples of bovine serum albumin ([…]) were loaded onto each gel analyzed by densitometry to provide an internal standard. Protein determinations were verified using Coomassie protein assay dye, according to manufactures instruction (Thermo Scientific; USA). The HIS-tagged enzymes were purified by metal ion affinity chromatography using Ni-IDA 1000 kit (Macherey-Nagel, Germany) following manufactures instructions. Protein purity was accessed by SDS-PAGE using NuPAGE Novex 4-12% Bis-Tris pre-cast gels (Life Technologies; USA) stained with Coomassie Brilliant Blue (Serva, Germany). Protein concentrations were estimated by measuring absorbance at 280 nm using Lambda Bio+(Perkin Elmer, USA). EXAMPLE 4: Enzyme kinetics. Resting cell suspension containing triA gene were incubated with various azines, melamine and atrazine and the culture filtrate was analyzed by UPLC-HR-MS. Substrates were obtained either from Sigma-Aldrich or synthesized internally. Synthetic standards and enzyme reaction products were analysed by UPLC-HR-MS (Thermo/Dionex UPLC UltiMate3000 coupled to a QExactive high resolution mass spectrometer). A Waters Acquity HSS T3 column (2.1 mm; 100 mm; […]) was used with a mobile phase water/acetonitrile (0.1% formic acid) with a flow rate of […]. Enzymes were used solved 25 mM sodium phosphate buffer (pH 7.2) with substrate concentration in the range of 1 nM to 10 nM at 30° C. Over time, the original azine peak disappeared whereas the formed OH-Metabolite (reaction product) increased. The product was identified by determination of the exact formula and by analysis of the accurate MS-MS fragments. Moreover for some of the formed products authentic standards were co-eluted. Degradation in % was calculated against the cells harboring the empty vector as control.

B1: Q71NL92AM155TF157L: mutated TriA variant of SEQ ID NO: 2 (protein)
chain: MQTLSIQHGTLVTMDQYRRVLGDSWVHVQDGRIVALGVHAESVPPPADRVIDARGKVVLPGFINAHTHVNNILLRGGPSHGRQLYDWLFNVAYPGQKAMRPEDVAVAVRLYCAEAVRSGITTINDNADSAIYPGNIEAAMAVYGEVGVRVVYARTFLDRMDGRIQGYVDALKARSPQVELCSIMEETAVAKDRITALSDQYHGTAGGRISVWPAPAITPAVTVEGMRWAQAFARDRAVMWTLHMAESDHDERLHWMSPAEYMECYGLLDERLQVAHCVYFDRKDVRLLHRHNVKVASQVVSNAYLGSGVAPVPEMVERGMAVGIGTDDGNCNDSVNMIGDMKFMAHIHRAVHRDADVLTPEKILEMATIDGARSLGMDHEIGSIETGKRADLILLDLRHPQTTPHHHLAATIVFQAYGNEVDTVLIDGNVVMENRRLSFLPPERELAFLEEAQSRATAILQRANMVANPAWRSL
modifications: Pseudomonas
In the case of B1, the “Degradation in % of 6-cyclopentyl-N4-(2,3,4,5,6-pentafluorophenyl)-1,3,5-triazine-2,4-diamine” value is reported as 98% and the “Degradation in % of Melamine” value is reported as 44%.

B2: Q71NL92AM155TF157V: mutated TriA variant of SEQ ID NO: 2 (protein)
chain: B1 chain with L157V
modifications: Pseudomonas
In the case of B2, the “Degradation in % of 6-cyclopentyl-N4-(2,3,4,5,6-pentafluorophenyl)-1,3,5-triazine-2,4-diamine” value is reported as 99% and the “Degradation in % of Melamine” value is reported as 52%.

B3: Q71NL92AM155VF157L: mutated TriA variant of SEQ ID NO: 2 (protein)
chain: B1 chain with T155V
modifications: Pseudomonas
For B3, the “Degradation in % of 6-cyclopentyl-N4-(2,3,4,5,6-pentafluorophenyl)-1,3,5-triazine-2,4-diamine” value was 100% and the “Degradation in % of Melamine” value was 67%.

B4: Q71NL92AD328G: mutated TriA variant of SEQ ID NO: 2 (protein)
chain: B1 chain with T155M, L157F, D328G
modifications: Pseudomonas
For B4, the “Degradation in % of 6-cyclopentyl-N4-(2,3,4,5,6-pentafluorophenyl)-1,3,5-triazine-2,4-diamine” value was 6% and the “Degradation in % of Melamine” value was 0%.

B5: L92AF89A: mutated TriA variant of SEQ ID NO: 2 (protein)
chain: B1 chain with N71Q, F89A, T155M, L157F
modifications: Pseudomonas
In the case of B5, the “Degradation in % of 6-cyclopentyl-N4-(2,3,4,5,6-pentafluorophenyl)-1,3,5-triazine-2,4-diamine” value is reported as 100% and the “Degradation in % of Melamine” value is reported as 100%.

B6: L92AF89AY93A: mutated TriA variant of SEQ ID NO: 2 (protein)
chain: B1 chain with N71Q, F89A, Y93A, T155M, L157F
modifications: Pseudomonas
With B6 the “Degradation in % of 6-cyclopentyl-N4-(2,3,4,5,6-pentafluorophenyl)-1,3,5-triazine-2,4-diamine” value was 100% and the “Degradation in % of Melamine” value was 63%.

B7: L92AY93A: mutated TriA variant of SEQ ID NO: 2 (protein)
chain: B1 chain with N71Q, Y93A, T155M, L157F
modifications: Pseudomonas
In the case of B7, the “Degradation in % of 6-cyclopentyl-N4-(2,3,4,5,6-pentafluorophenyl)-1,3,5-triazine-2,4-diamine” value is reported as 56% and the “Degradation in % of Melamine” value is reported as 1%.

B8: Q71C: mutated TriA variant of SEQ ID NO: 2 (protein)
chain: B1 chain with N71C, A92L, T155M, L157F
modifications: Pseudomonas
In the case of B8, the “Degradation in % of 6-cyclopentyl-N4-(2,3,4,5,6-pentafluorophenyl)-1,3,5-triazine-2,4-diamine” value is reported as 0% and the “Degradation in % of Melamine” value is reported as 5%.

B9: L92AY93L: mutated TriA variant of SEQ ID NO: 2 (protein)
chain: B1 chain with N71Q, Y93L, T155M, L157F
modifications: Pseudomonas
With B9 the “Degradation in % of 6-cyclopentyl-N4-(2,3,4,5,6-pentafluorophenyl)-1,3,5-triazine-2,4-diamine” value was 99% and the “Degradation in % of Melamine” value was 100%.

B10: L92AY93F: mutated TriA variant of SEQ ID NO: 2 (protein)
chain: B1 chain with N71Q, Y93F, T155M, L157F
modifications: Pseudomonas
For B10, the “Degradation in % of 6-cyclopentyl-N4-(2,3,4,5,6-pentafluorophenyl)-1,3,5-triazine-2,4-diamine” value was 100% and the “Degradation in % of Melamine” value was 100%.

B11: F89A: mutated TriA variant of SEQ ID NO: 2 (protein)
chain: B1 chain with N71Q, F89A, A92L, T155M, L157F
modifications: Pseudomonas
In the case of B11, the “Degradation in % of 6-cyclopentyl-N4-(2,3,4,5,6-pentafluorophenyl)-1,3,5-triazine-2,4-diamine” value is reported as 26% and the “Degradation in % of Melamine” value is reported as 100%.

B12: Y93A: mutated TriA variant of SEQ ID NO: 2 (protein)
chain: B1 chain with N71Q, A92L, Y93A, T155M, L157F
modifications: Pseudomonas
In the case of B12, the “Degradation in % of 6-cyclopentyl-N4-(2,3,4,5,6-pentafluorophenyl)-1,3,5-triazine-2,4-diamine” value is reported as 66% and the “Degradation in % of Melamine” value is reported as 100%.

B13: Y93V: mutated TriA variant of SEQ ID NO: 2 (protein)
chain: B1 chain with N71Q, A92L, Y93V, T155M, L157F
modifications: Pseudomonas
For B13, the “Degradation in % of 6-cyclopentyl-N4-(2,3,4,5,6-pentafluorophenyl)-1,3,5-triazine-2,4-diamine” value was 98% and the “Degradation in % of Melamine” value was 100%.

B14: Y93L: mutated TriA variant of SEQ ID NO: 2 (protein)
chain: B1 chain with N71Q, A92L, Y93L, T155M, L157F
modifications: Pseudomonas
In the case of B14, the “Degradation in % of 6-cyclopentyl-N4-(2,3,4,5,6-pentafluorophenyl)-1,3,5-triazine-2,4-diamine” value is reported as 82% and the “Degradation in % of Melamine” value is reported as 100%.

B15: Y93F: mutated TriA variant of SEQ ID NO: 2 (protein)
chain: B1 chain with N71Q, A92L, Y93F, T155M, L157F
modifications: Pseudomonas
For B15, the “Degradation in % of 6-cyclopentyl-N4-(2,3,4,5,6-pentafluorophenyl)-1,3,5-triazine-2,4-diamine” value was 33% and the “Degradation in % of Melamine” value was 98%.

B16: M160G: mutated TriA variant of SEQ ID NO: 2 (protein)
chain: B1 chain with N71Q, A92L, T155M, L157F, M160G
modifications: Pseudomonas
For B16, the “Degradation in % of 6-cyclopentyl-N4-(2,3,4,5,6-pentafluorophenyl)-1,3,5-triazine-2,4-diamine” value was 29% and the “Degradation in % of Melamine” value was 100%.

B17: N70VQ71V: mutated TriA variant of SEQ ID NO: 2 (protein)
chain: B1 chain with N70V, N71V, A92L, T155M, L157F
modifications: Pseudomonas
With B17 the “Degradation in % of 6-cyclopentyl-N4-(2,3,4,5,6-pentafluorophenyl)-1,3,5-triazine-2,4-diamine” value was 0% and the “Degradation in % of Melamine” value was 0%.

B18: D250S: mutated TriA variant of SEQ ID NO: 2 (protein)
chain: B1 chain with N71Q, A92L, T155M, L157F, D250S
modifications: Pseudomonas
In the case of B18, the “Degradation in % of 6-cyclopentyl-N4-(2,3,4,5,6-pentafluorophenyl)-1,3,5-triazine-2,4-diamine” value is reported as 16% and the “Degradation in % of Melamine” value is reported as 0%.

B19: D328G: mutated TriA variant of SEQ ID NO: 2 (protein)
chain: B1 chain with N71Q, A92L, T155M, L157F, D328G
modifications: Pseudomonas
With B19 the “Degradation in % of 6-cyclopentyl-N4-(2,3,4,5,6-pentafluorophenyl)-1,3,5-triazine-2,4-diamine” value was 19% and the “Degradation in % of Melamine” value was 0%.

B20: D328A: mutated TriA variant of SEQ ID NO: 2 (protein)
chain: B1 chain with N71Q, A92L, T155M, L157F, D328A
modifications: Pseudomonas
With B20 the “Degradation in % of 6-cyclopentyl-N4-(2,3,4,5,6-pentafluorophenyl)-1,3,5-triazine-2,4-diamine” value was 95% and the “Degradation in % of Melamine” value was 5%.

B21: F89AL92AY93L: mutated TriA variant of SEQ ID NO: 2 (protein)
chain: B1 chain with N71Q, F89A, Y93L, T155M, L157F
modifications: Pseudomonas
For B21, the “Degradation in % of 6-cyclopentyl-N4-(2,3,4,5,6-pentafluorophenyl)-1,3,5-triazine-2,4-diamine” value was 99% and the “Degradation in % of Melamine” value was 7%.

B22: F89LL92AY93L: mutated TriA variant of SEQ ID NO: 2 (protein)
chain: B1 chain with N71Q, F89L, Y93L, T155M, L157F
modifications: Pseudomonas
With B22 the “Degradation in % of 6-cyclopentyl-N4-(2,3,4,5,6-pentafluorophenyl)-1,3,5-triazine-2,4-diamine” value was 35% and the “Degradation in % of Melamine” value was 0%.

B23: Y85LL92AY93V: mutated TriA variant of SEQ ID NO: 2 (protein)
chain: B1 chain with N71Q, Y85L, Y93V, T155M, L157F
modifications: Pseudomonas
For B23, the “Degradation in % of 6-cyclopentyl-N4-(2,3,4,5,6-pentafluorophenyl)-1,3,5-triazine-2,4-diamine” value was 24% and the “Degradation in % of Melamine” value was 0%.

B24: Y85LF89AL92AY93L: mutated TriA variant of SEQ ID NO: 2 (protein)
chain: B1 chain with N71Q, Y85L, F89A, Y93L, T155M, L157F
modifications: Pseudomonas
With B24 the “Degradation in % of 6-cyclopentyl-N4-(2,3,4,5,6-pentafluorophenyl)-1,3,5-triazine-2,4-diamine” value was 15% and the “Degradation in % of Melamine” value was 0%.

B25: Y85LL92AY93LD250S: mutated TriA variant of SEQ ID NO: 2 (protein)
chain: B1 chain with N71Q, Y85L, Y93L, T155M, L157F, D250S
modifications: Pseudomonas
In the case of B25, the “Degradation in % of 6-cyclopentyl-N4-(2,3,4,5,6-pentafluorophenyl)-1,3,5-triazine-2,4-diamine” value is reported as 36% and the “Degradation in % of Melamine” value is reported as 0%.
